This passage reports Ki results from paper PMC7617879.

The target of this experiment is catalytic domain of MMP-14 (MMP-14CAT) (human). Nature of the experiment: enzyme inhibition assay.

B1: N-TIMP2-S31PrK, P16035 27-153 (domain or fragment)
chain: CSCSPVHPQQAFCNADVVIRAKAVSEKEVDKGNDIYGNPIKRIQYEIKQIKMFKGPEKDIEFIYTAPSSAVCGVSLDVGGKKEYLIAGKAEGDGKMHITLCDFIVPWDTLSTTQKKSLNHRYQMGCE
modifications: here or on the partner: propargyl lysine (PrK) at position 31
As to B1, the Ki was 1.57 nM.

Broadly, the Ki is a dissociation constant, usually derived from enzyme kinetics or from competition with a known ligand.
